Data published in patent US20140335573A1.

Biological target: native C. thermocellum cellulosome (purified from culture media of C. thermocellum ATCC 27405) (Clostridium thermocellum) (UniProt Q06851)
Assay: cell-based or functional assay

UniProt Q06851, sequence (Q06851 whole entry): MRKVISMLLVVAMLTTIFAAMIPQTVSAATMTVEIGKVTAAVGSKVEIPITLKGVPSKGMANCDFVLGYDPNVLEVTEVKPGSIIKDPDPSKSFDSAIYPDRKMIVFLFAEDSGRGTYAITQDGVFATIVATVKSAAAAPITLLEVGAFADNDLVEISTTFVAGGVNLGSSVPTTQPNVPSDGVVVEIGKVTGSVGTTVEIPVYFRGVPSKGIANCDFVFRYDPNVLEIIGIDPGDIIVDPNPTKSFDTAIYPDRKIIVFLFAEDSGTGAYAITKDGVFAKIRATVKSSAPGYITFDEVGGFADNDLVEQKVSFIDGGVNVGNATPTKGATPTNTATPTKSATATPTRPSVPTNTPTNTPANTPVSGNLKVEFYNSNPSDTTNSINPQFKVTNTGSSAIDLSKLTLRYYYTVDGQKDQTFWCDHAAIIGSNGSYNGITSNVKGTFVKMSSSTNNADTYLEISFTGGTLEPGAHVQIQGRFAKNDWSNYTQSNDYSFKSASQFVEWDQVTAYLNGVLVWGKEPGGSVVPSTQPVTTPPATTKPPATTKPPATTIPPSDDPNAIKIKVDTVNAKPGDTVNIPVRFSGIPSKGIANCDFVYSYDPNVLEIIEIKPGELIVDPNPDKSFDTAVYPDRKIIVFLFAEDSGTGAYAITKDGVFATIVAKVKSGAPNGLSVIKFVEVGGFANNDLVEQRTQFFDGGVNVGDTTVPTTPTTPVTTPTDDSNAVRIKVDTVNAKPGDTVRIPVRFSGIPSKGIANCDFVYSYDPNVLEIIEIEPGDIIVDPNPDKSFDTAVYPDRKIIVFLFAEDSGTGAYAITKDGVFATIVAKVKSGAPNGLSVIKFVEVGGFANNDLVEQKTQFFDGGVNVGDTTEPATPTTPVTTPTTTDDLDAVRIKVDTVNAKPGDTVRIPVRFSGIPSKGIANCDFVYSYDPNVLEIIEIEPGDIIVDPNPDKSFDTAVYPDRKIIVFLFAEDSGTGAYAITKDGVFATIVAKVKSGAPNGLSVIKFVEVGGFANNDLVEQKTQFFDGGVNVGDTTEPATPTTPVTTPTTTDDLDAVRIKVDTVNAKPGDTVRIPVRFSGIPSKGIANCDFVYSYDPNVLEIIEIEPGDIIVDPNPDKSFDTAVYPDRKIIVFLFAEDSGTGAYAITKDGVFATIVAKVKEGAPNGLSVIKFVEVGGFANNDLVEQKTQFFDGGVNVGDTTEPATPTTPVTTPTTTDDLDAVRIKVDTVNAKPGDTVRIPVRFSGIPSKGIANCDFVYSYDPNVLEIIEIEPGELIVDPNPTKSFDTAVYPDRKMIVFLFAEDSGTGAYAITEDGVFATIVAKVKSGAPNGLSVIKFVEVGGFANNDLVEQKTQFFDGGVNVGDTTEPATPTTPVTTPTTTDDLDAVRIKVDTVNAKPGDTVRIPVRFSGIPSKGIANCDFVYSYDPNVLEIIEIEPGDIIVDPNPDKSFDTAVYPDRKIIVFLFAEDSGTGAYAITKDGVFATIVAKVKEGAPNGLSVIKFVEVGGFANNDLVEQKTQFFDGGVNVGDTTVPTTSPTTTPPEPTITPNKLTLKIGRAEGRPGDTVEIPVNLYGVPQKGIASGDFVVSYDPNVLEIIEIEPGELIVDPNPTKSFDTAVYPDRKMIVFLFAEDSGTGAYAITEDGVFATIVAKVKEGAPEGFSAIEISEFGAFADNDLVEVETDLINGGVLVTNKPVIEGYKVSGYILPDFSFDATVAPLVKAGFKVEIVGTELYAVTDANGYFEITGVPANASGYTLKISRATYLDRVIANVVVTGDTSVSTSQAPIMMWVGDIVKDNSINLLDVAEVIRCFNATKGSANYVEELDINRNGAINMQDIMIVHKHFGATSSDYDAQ

BglA-CohII (C. thermocellum beta-glucosidase A fused to the type-II cohesin module of Orf2p) (enzyme)
hydrolysis of microcrystalline cellulose (soluble reducing sugars), fold over native cellulosome: 2.68 fold | hydrolysis of pre-treated switchgrass (soluble reducing sugars), fold over native cellulosome: 1.86 fold
